Publication PMC7915030, “A Novel Artificially Humanized Anti-Cripto-1 Antibody Suppressing Cancer Cell Growth” (International Journal of Molecular Sciences, 2021)

B1: anti-CR-1 antibody Clone 35 (antibody, V domains shown)
VH: QVQLQQSGPGLVKPSQTLSLTCAISGNSVSSNSAAWNWIRRSPSRGLEWLGRTYYRSKWYNDYAVSVKSRITIKPDTSKNQFSLQLNSVTPEDTAMYYCARGFCSGGRCYSFDYWGPGTLVTVSS
VL: QSVLTQPASVSGSPGQSITISCTGTDSDVGAYGSASWYRHSPGKAPQLIIYDVTNRPSGVSNRFYGSKSGNTASLTISGLQAEDEADYYCQAWDSGIHVVFGGGTQLTVL
notes: VH of phage clone 35 from the human scFv phage display library; human IgG heavy-chain constant region (CH1, CH2 and CH3) of the vector pHIgH5zeo; VL of phage clone 35 from the human scFv phage display library; human IgG light-chain constant region (CL) of the vector pHIgL5hyg; Whole human IgG format (VH-CH1-CH2-CH3 and VL-CL); also called anti-CR-1 Ab Clone 35; anti-CR-1 Clone 35 antibody
B2: anti-CR-1 antibody Clone 331 (antibody, V domains shown)
VH: QVQLQQSGPGQVKPSQSLSLICAISGDSVSTSSAAWNWIRQSPSRGFEWLGRTFYRSGWFTDYAASVKSRITINPDTSKNQFSLQLNSVTPEDTAMYYCARIRSGYRFDYWGQGILVAVSS
VL: NFMLTQPPSASGTPGQRVTVSCSGSSSNIGSNFVFWYQHLPGKAPKLLIYRNHQRPSGVPDRFSGSKSGTSASLAISGLRSEDESDYYCQVWDDRNVVFGGGTQLTVL
notes: VH of phage clone 331; human IgG heavy chain constant region CH1-CH2-CH3 from the vector pHIgH5zeo; VL of phage clone 331; human IgG light chain constant region CL from the vector pHIgL5hyg; whole human IgG built from the VH and VL of the scFv phage clone; also called anti-CR-1 Ab; source: ExpiCHO-S, transfected, conditioned medium
B3: anti-CR-1 antibody Clone 242 (antibody, V domains shown)
VH: QVQLVESGGGLVQPGGSLRLSCAASGFTFSNKPMSWVRQAPGKGLEWLSAISGSGVYAYFADSAKGRFTISRDNSKNTPYLQMNSLRAEDTAMYYCARQHITMLPGWFDPWGQGTLVTVSS
VL: QSVLTQPPSASGSPGQSVTISCTGSSSDVGGYNYVSWYQQHPGKAPKLMIYEVSKRPSGVPDRFSGSKSGNTASLTVSGLQAEDEAEYHCATWDNSLSSWVFGRGTQLTVL
notes: VH of phage clone 242; human IgG heavy chain constant region CH1-CH2-CH3 from the vector pHIgH5zeo; VL of phage clone 242; human IgG light chain constant region CL from the vector pHIgL5hyg; whole human IgG built from the VH and VL of the scFv phage clone; also called anti-CR-1 Ab; source: ExpiCHO-S, transfected, conditioned medium
B4: anti-CR-1 antibody Clone 90 (antibody, V domains shown)
VH: QVQLQQSGPGLVKPSQTLSLTCAISGDSVSSNSAAWNWIRQSPSRGLEWLGRTYYRSKWYNDYAVSVKSRITIKPDTSKNQFSLQLYSVTPEDTAMYYCARDSYGMDVWGQGTTATVSS
VL: NFMLTQPPSASGTPGQRVSISCSGSSSNIGSSSVYWCRQLPGTAPKLLIYDVTNRPSGVPDRFSASKSGTSASLAISGLRSEDESDYYCVLYMGSGISVFGGGTKVTVL
notes: VH of phage clone 90; human IgG heavy chain constant region CH1-CH2-CH3 from the vector pHIgH5zeo; VL of phage clone 90; human IgG light chain constant region CL from the vector pHIgL5hyg; whole human IgG built from the VH and VL of the scFv phage clone; also called anti-CR-1 Ab; source: ExpiCHO-S, transfected, conditioned medium
B5: anti-CR-1 antibody Clone 226 (antibody, V domains shown)
VH: QVQLQQSGPGLVKPSQTLSLTCAISGDSVSSNSAAWNWIRQSPSRGLEWLGRTYYRSKWYNDYAVSVKSRITINPDTSKNQFSLQLNSVTPEDTAVYYCTPTPTWWPVRWGQGTLVTVSS
VL: QSALTQPRSVSGSPGQSVTISCTGTSGDVGYYDHVSWYQQHPGKAPKLFIYDVTKRPSGVPDRFSASKSGNTASLTISRLQAEDEAEYHCLTWGNSAVFGGGTQLTVL
notes: VH of phage clone 226; human IgG heavy chain constant region CH1-CH2-CH3 from the vector pHIgH5zeo; VL of phage clone 226; human IgG light chain constant region CL from the vector pHIgL5hyg; whole human IgG built from the VH and VL of the scFv phage clone; also called anti-CR-1 Ab; source: ExpiCHO-S, transfected, conditioned medium
B6: anti-CR-1 antibody Clone 212 (antibody, V domains shown)
VH: QVQLQQSGPGLVKPSQTLSLTCGISGDSVSSNSAAWNWIRQSPSRGLEWLGRTYYRSQWYNDYAVSVNSRITINPDTSKNQFSLQLNSVTPEDTAMYYCARTLRTPLADDYYYSGMDAWGQGTTVTVSS
VL: QSVLIQPASVSGSPGQSITISCTGTSSDVGSYNLASWYQHHPGKAPKLMIYEVNNRPSGVSNRFSGSKSGNTASLTISGLQAEDEADYYCQVWDGSGDPHAVFGGGTQLTVL
notes: VH of phage clone 212; human IgG heavy chain constant region CH1-CH2-CH3 from the vector pHIgH5zeo; VL of phage clone 212; human IgG light chain constant region CL from the vector pHIgL5hyg; whole human IgG built from the VH and VL of the scFv phage clone; also called anti-CR-1 Ab; source: ExpiCHO-S, transfected, conditioned medium
B7: anti-CR-1 antibody Clone 292 (antibody, V domains shown)
VH: QVQLQQSGPGLVKPSQTLPLTCAIYGDSVSSNSAAWNWIRQSPSRGLEWLGRTYYRSKWYNDYAVSVQSRITINPDTSKNQFSLQLNSVTPEDTAMYYCAKGKLSLEVITTRGWDWGQGTLVTVSS
VL: QSVLTQPRSVSGSPGQSVTISCTGTRADVGTYHYVSWYQRHPGKAPKLIIYDVSKRPSGVPDRFSGSKSGNTASLTVSGLQAEDEADYYCQSADSSGTYVIFGGGTQLTVL
notes: VH of phage clone 292; human IgG heavy chain constant region CH1-CH2-CH3 from the vector pHIgH5zeo; VL of phage clone 292; human IgG light chain constant region CL from the vector pHIgL5hyg; whole human IgG built from the VH and VL of the scFv phage clone; also called anti-CR-1 Ab; source: ExpiCHO-S, transfected, conditioned medium
B8: anti-CR-1 antibody Clone 224 (antibody, V domains shown)
VH: QVQLQQSGPGLVKPSQTLSLTCAISGDSVSSNSATWNWIRQSPSRGLEWLGRTYYKSKWYNEYAVSVKSRITINPDTSKNQFSLQLDSVTPEDTAMYYCATDRYYARDYWGRGTLVTVSS
VL: QSVLIQPRSVSGSPGQSVTISCTGTSGDVGYYDHVSWYQQHPGKAPKIMIYDVTQRPSGVPDRFSGSRSGNTASLTISGLQADDESDYYCVLYLGNGIWVFGGGTQLTVL
notes: VH of phage clone 224; human IgG heavy chain constant region CH1-CH2-CH3 from the vector pHIgH5zeo; VL of phage clone 224; human IgG light chain constant region CL from the vector pHIgL5hyg; whole human IgG built from the VH and VL of the scFv phage clone; also called anti-CR-1 Ab; source: ExpiCHO-S, transfected, conditioned medium
B9: anti-CR-1 antibody Clone 35 (antibody, V domains shown)
VH: QVQLQQSGPGLVKPSQTLSLTCAISGNSVSSNSAAWNWIRRSPSRGLEWLGRTYYRSKWYNDYAVSVKSRITIKPDTSKNQFSLQLNSVTPEDTAMYYCARGFCSGGRCYSFDYWGPGTLVTVSS
VL: QSVLTQPASVSGSPGQSITISCTGTDSDVGAYGSASWYRHSPGKAPQLIIYDVTNRPSGVSNRFYGSKSGNTASLTISGLQAEDEADYYCQAWDSGIHVVFGGGTQLTVL
notes: VH of phage clone 35; human IgG heavy chain constant region CH1-CH2-CH3 from the vector pHIgH5zeo; VL of phage clone 35; human IgG light chain constant region CL from the vector pHIgL5hyg; whole human IgG built from the VH and VL of the scFv phage clone; also called anti-CR-1 Ab Clone 35; anti-CR-1 Ab; source: ExpiCHO-S, transfected, conditioned medium; also purified (HiTrap protein A)

These binders were tested against T1, recombinant soluble human CR-1 protein (rshCR-1) (Homo sapiens, UniProt P13385) (assay: BLI; Octet; rshCR-1 (2 ng/mL) fixed to amine reactive biosensor; purified antibody 25-200 nM; global fitting, steady state analysis section). Settings: both partners purified.
T1 construct: Cripto-1 (CR-1), human, recombinant soluble form; also called rhsCR-1; recombinant Cripto-1
T1 sequence (P13385 31-150): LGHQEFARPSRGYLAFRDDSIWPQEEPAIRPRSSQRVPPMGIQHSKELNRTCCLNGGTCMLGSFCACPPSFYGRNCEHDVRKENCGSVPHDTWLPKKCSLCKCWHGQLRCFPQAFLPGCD

B1 was tested. Which koff did it give?
The koff was 0.0114 s⁻¹.

The binders below were run against T2, recombinant soluble human CR-1 protein (Homo sapiens, UniProt P13385) (assay: BLI; Octet RED96; rshCR-1 immobilised on Amine Reactive (AR2G) biosensor; anti-CR-1 Abs in ExpiCHO-S conditioned medium as analyte). Settings: one partner purified.
T2 construct: Cripto-1 (CR-1), human, recombinant soluble form; also called rshCR-1; rhsCR-1
T2 sequence (P13385 31-150): as above

B2 was tested. Which koff did it give?
Its koff is 0.0181 s⁻¹.

B3 was tested. Which koff did it give?
The koff was 0.0187 s⁻¹.

Which koff does the source give for B4 here?
Its koff is 0.0196 s⁻¹.

Which koff does the source give for B5 here?
The koff was 0.0194 s⁻¹.

For B6, which koff is on record?
The koff was 0.0209 s⁻¹.

Which koff does the source give for B7 here?
The koff was 0.0207 s⁻¹.

Which koff does the source give for B8 here?
Its koff is 0.0191 s⁻¹.

With B9 as the binder, how does the koff read?
Its koff is 0.0186 s⁻¹.

These binders were tested against Cripto-1 (CR-1) in CR-1 overexpressing human cancer cell lines and cancer tissues (Homo sapiens, UniProt P13385) (assay: cell-based or functional assay). Settings: not given.
Cripto-1 (CR-1) in CR-1 overexpressing human cancer cell lines and cancer tissues, sequence (P13385 31-150): as above

With B1 as the binder, how does the “growth inhibition of GEO cells overexpressing CR-1 (MTT, 72 h), antibody 2.1–136 µg/mL (14–900 nM); IC50” value read?
The value was roughly 110 nM.
